Drawing on article PMC6200986, this text covers Kd for one substance.

The data set relates to YlxR (Bacillus subtilis 168). The data set is described as follows: EMSA. The following applies: 10 mM Tris-HCl pH 8.0, 100 mM KCl, 10 mM MgCl2, 1 mM DTT, 10% glycerol, 12 ul; 1% agarose gel in Tris-acetate-EDTA, loaded immediately after protein addition ….

The Kd is the constant that tells how readily two partners part at equilibrium. The substance pET28b(+) supercoiled came in with a Kd of 0.1 µM.
